In the nanobody polyreactivity screen of Harvey et al. (2022):

Assay: yeast display, Sf9 membrane polyspecificity reagent, FACS + sequencing; frameworks hold sequencing errors
Procedure, shortened: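 Polyreactivity labels are assigned by the sorting gate from which each nanobody was recovered. The gates were low and high (top ~1%), set on anti-HA fluorescence for expression and streptavidin fluorescence for reagent binding. Before sorting, galactose-induced (36–48 hours) yeast display cells were stained for 1 hour at 4 °C with 10% biotinylated, detergent-solubilized Sf9 membrane reagent.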

Sequence	polyreactivity (PSR sort gate)
QVQLVESGGGLVQAGGSLRLSCAASGSIFGSYAMGWYRQAPGKERELVAAITSAGSTNYADSVKGRFTISRDNAKNTVYLQMNSLKPEDTAVYYCAVRPGFGRSLWYGYWGQGTQVTVSS	low polyreactivity
QVQLVESGGGLVQAGGSLRLSCAASGSIFGSYAMGWYRQAPGKERELVAAITSGGSTYADSVKGPFTISRDNPNKTVYLQMNSQKPDDTAVYYSNAKFYHSTSTLVQSEYDYWGQGTQVSVSS	low polyreactivity
QVQLVESGGGLVQAGGSLRLSCAASGSIFGSYTMGWYRQAPGKEREFVAAINFSGGRTYYADSVKGRFTISRDNAKNTVYLQMNSLKPEDTAVYYCARRWRQARYDYWGQGTQVTVSS	high polyreactivity
QVQLVESGGGLVQAGGSLRLSCAASGSIFGTNAMGRYRPAPGKERELVAAISWSGTSTYYADSVKGRFTISRDNAKNTVYLQMNSLKPEDTAVYYCAKRSGYSRGFYYWGQGTQVTVSS	high polyreactivity
QVQLVESGGGLVQAGGSLRLSCAASGSIFGTNAMGWYRQAPGKEREMVAAISLSTGSTYYADSVKGRFTISRDKAKNTVYLQMNSLKPEDTAVYSCAAYYVTPIYYYLGQGTQVTVSS	low polyreactivity
QVQLVESGGGLVQAGGSLRLSCAASGSIFGTNTMGWYRQAAGKERVLVAAIRLSDSSTYYADSVKGRFTISRDNAKKTVYLQMNSLKPGDTAVYYCAVDYRAYHYYRYDYWGQGTQVTVSS	low polyreactivity
QVQLVESGGGLVQAGGSLRLSCAASGSIFGTNTMGWYRQAPGKERELVAAISGGGSTYYADSVKGRFTISRDNAKNTVYLQMNSLKPEDTAVYYCAVRSLRVDKYGYWGQGTQVTVSS	high polyreactivity
QVQLVESGGGLVQAGGSLRLSCAASGSIFGTYAMGWYRQAPGKERELVARITRGVSTNYADSVQGRFTISRDNAKNTVYLQMNSLKPEDTAVYYCAAESGNRYEYWGQGTQVTVSS	low polyreactivity
QVQLVESGGGLVQAGGSLRLSCAASGSIFGVNAMGWYRQAPGKERELVAAISVSGGRTYYADSVKGRFTISRDNAKNTVYLLMNSLKPEDTAVYYCAATTYIWPYDYWGQGTQVTVSS	low polyreactivity
QVQLVESGGGLVQAGGSLRLSCAASGSIFGVNAMGWYRQAPGKERELVAGITTGGSTKYADSVKGRFTISRDNAKNTVYLQMNSLKPEDTAVYYCAATGKWYHFYHYGYWGQGTQVTVSS	low polyreactivity
QVQLVESGGGLVQAGGSLRLSCAASGSIFGVNAMGWYRQTPGKERELVARINWSSGRTYYADSVKGRFTISRDNAKNTVYLQMNSLKQEDTAVYYCAAAYWRPGVRFFGPYDYWGQGTQVTVSS	high polyreactivity
QVQLVESGGGLVQAGGSLRLSCAASGSIFGVYAMGWYRQAPGKERELVARISSGGGSTYYADSVKGRFTISRDNAKNTVYLQMNSLKPEDTAVYYCATRYYGYYPVNYWGQGTQVTVSS	high polyreactivity
QVQLVESGGGLVQAGGSLRLSCAASGSIFGVYAMRWYRQAPGKERELVATISRSGAITYYADSVKGRFTISRDNAKNTVYLQMNSLKPEDTAVYYCAADFFSRDWGQGTQVTVSS	low polyreactivity
QVQLVESGGGLVQAGGSLRLSCAASGSIFGVYTLGWYRQAPGKERELVAAISGSGGSTSYADSVKGRFTISRDNAKNTVYLQMTSLKPEDTAGYYCATRFPNIPPYDSLGQGTQVTVSS	low polyreactivity
QVQLVESGGGLVQAGGSLRLSCAASGSIFGVYTMGWYRQAPGKERELVAAIRGVGSTNYADSVKGRFTISRDNAKNTVYLQMNSLKPEDTAVYYCASRYAYGMWGQGTQVTVSS	low polyreactivity
QVQLVESGGGLVQAGGSLRLSCAASGSIFGVYTMGWYRQAPWKERELVAAISRNGGSTYYEDSVKGRFTISRDNAKNNVYLQMNSLKPEDTAVYYCATSTSRRYGSRHNYWGQGTQVTVSS	high polyreactivity

Sequence	polyreactivity (PSR sort gate)
QVQLVESGGGLVQAGGSLRLSCAASGSIFGWYAMGWYRQAPGKERELVAAITFSSVSTYYADSVKGRFTISRDNAKNTVYLQMNSLKPEDTAVYYCAAVVYYTFDYWGQGTQVTVSS	low polyreactivity
QVQLVESGGGLVQAGGSLRLSCAASGSIFGWYAMGWYRQAPGTERELVAAIRRGGSTNYADSVKGRFTISRDNAKNTVYLQMNSLKPEDTAVYYCAAGKSGYSKRIFRYSFDYWGQGTQVTVSS	high polyreactivity
QVQLVESGGGLVQAGGSLRLSCAASGSIFGYAMGWYRQAPGKERELVAAISFSGVSTYYADSVKGRFTISRDNAKNTVYLQMNSLKPEDTAVYYCNAYSDGDEDYWGQGTQVTVSS	low polyreactivity
QVQLVESGGGLVQAGGSLRLSCAASGSIFGYNAMGWSRQAPGKERELVAAITGSGGSTYYADSVKGRFTISRDNAKNTVYLLMNILKPEDTAVYYCADDLVGGPLGYWDYDYWGQGTQVTVSS	low polyreactivity
QVQLVESGGGLVQAGGSLRLSCAASGSIFGYNAMGWYRQAPGKERELVAAISNDGDNTYYADSVKGRFTISRDNAKNTVYLQMNSLKPEDTAVYYCATEYPLTYAYYYYDGGDYWGQGTQVTVSS	low polyreactivity
QVQLVESGGGLVQAGGSLRLSCAASGSIFGYNTMGWYRQAPGKERELVATITRGGSTHYADSVKGRFTISRDNAKNTVYLQMNSLKPEDTAVYYCAATRLSYVRLYRFSQQYYYWGQGTQVTVSS	high polyreactivity
QVQLVESGGGLVQAGGSLRLSCAASGSIFGYNVMGWYRQAPGKERELVAGITSGGSTNYADSVKGRFTISRDNAKNTVYLQMNSLKPEDTAVYYCNAEGVFGDGRSGFYWYDYWGQGTQVTVSS	low polyreactivity
QVQLVESGGGLVQAGGSLRLSCAASGSIFGYTTMGWYRQGPGKERELVAAINWSDGHTNYADSVKGRFTISRDNANNTVYLQLNSLKPEDTAVYYCAADWYRSSWTYNYWGQGSQVTVSS	low polyreactivity
QVQLVESGGGLVQAGGSLRLSCAASGSIFGYYAMGWYRQAPGKEREFVAAISSRKDSTYADSVKGRFTISRDNAKNTVYLQMNSLKPEDTAVYYCAASTFRLTYAGHSYDYWGQGTQVTVSS	high polyreactivity
QVQLVESGGGLVQAGGSLRLSCAASGSIFGYYAMGWYRQAPGKERELVAAISGSGGSTYYADSVKGRFTMSRDNAKNTVYLQMNSLKPEDTAVYYCARVRGGYDKMYYWGQGTQVTVSS	high polyreactivity
QVQLVESGGGLVQAGGSLRLSCAASGSIFGYYAMGWYRQAPGKERELVAAISSSGASTYYADSVKGRFTISRDNAKNTVYLQMNSLKPEDTAVYYCNAARRYPTRGGYWGQGTQVTVSS	high polyreactivity
QVQLVESGGGLVQAGGSLRLSCAASGSIFGYYAMGWYRQTPGKERELVAAIRWRGGRTYYADSVKGRFTISRDNAKNTVYLQMNSLKPEDTAVYYCNTRRTGRRSTTPGDYWGQGTQVTVSS	high polyreactivity
QVQLVESGGGLVQAGGSLRLSCAASGSIFGYYSMGCYRQAPGKERELVATITFGGGSTYYADSVKGRFTISRDNAKNTVYLQMNSLKPEDTAVYYCAADSGYLGFYGDEYSWGQGTQVTVSS	low polyreactivity
QVQLVESGGGLVQAGGSLRLSCAASGSIFGYYSMGWYRQAPGKERELVASITSGDSTNYADSVKGRFTISRDNAKNTVYLQMNSLKPEDTAVDYCNTERGYYDEYDYWGQGTQVTVSS	low polyreactivity
QVQLVESGGGLVQAGGSLRLSCAASGSIFGYYTMGWYRQAPGKERELVAAISKNGGSTYYADSVKGRFTISRDNAKNTVYLQMNSLKPEDTAVYYCAAEYTRKGVSGSGYDYWGQGTQVTVSS	low polyreactivity
QVQLVESGGGLVQAGGSLRLSCAASGSIFGYYTMGWYRQAPGKERELVAAISSSGGRTYYADSVKGRFTISRDNAKNTVYLQLNSLKPEDTAVYYCAAVPIKRGLILGDRGYNYWGQGTQVTVSS	high polyreactivity
